“And” between values parts separate entries of the source, which are not always exact repeats. Equal entries are not always repeated. Where no end group is shown, it is not given here.
How the values were obtained:
[1] = GLP Aggregation Assay (time to onset of aggregation, turbidity at 350 nm); format: physicochemical; conditions: 0.3 mg/mL in 10 mM citrate, 10 mM phosphate, 150 mM NaCl, pH 7.4 to 7.5, 37° C., stirred, turbidity at 350 nm
Procedure: GLP peptides of this invention were analyzed with respect to their potential to aggregate in solution. In general, peptides in solution were stirred at elevated temperature in a suitable buffer while recording turbidity at 350 nm as a function of time. Time to the onset of aggregation was measured to quantify the potential of a given GLP molecule to aggregate under these stressed conditions.
A GLP-1 compound was first dissolved under alkaline conditions (pH 10.5) for 30 minutes to dissolve any pre-aggregated material. The solution was then adjusted to pH 7.4 and filtered. Specifically, 4 mg of a lyophilized GLP-1 compound was dissolved in 3 ml of 10 mM phosphate/10 mM citrate. The pH was adjusted to 10.0-10.5 and held for 30 minutes. The solution was adjusted with HCl to pH 7.4 and filtered through a suitable filter, for example a Millex GV syringe filter (Millipore Corporation, Bedford, Mass.). This solution was then diluted to a final sample containing 0.3 mg/mL protein in 10 mM citrate, 10 mM phosphate, 150 mM NaCl, and adjusted to pH 7.4 to 7.5. […] Every five minutes the turbidity of the solution was measured at 350 nm on an AVIV Model 14DS UV-VIS spectrophotometer (Lakewood, N.J.). For 30 seconds prior to and during the measurement the solution was stirred using a magnetic stir bar from Starna Cells, Inc. (Atascadero, Calif.). An increase in OD at 350 nm indicates aggregation of the GLP-peptide. The time to aggregation was approximated by the intersection of linear fits to the pre-growth and growth phase according to method of Drake (Arvinte T, Cudd A, and Drake A F. (1993) J. Bio. Chem. 268, 6415-6422).
The cuvette was cleaned between experiments with a caustic soap solution (e.g., Contrad-70).
The results for a number of GLP-1 compounds of the present invention are reported in Table 1 as the time in hours required for the compound to aggregate.

[2] = Zinc precipitation of GLP-1 compounds (A280 of supernatant); format: physicochemical; conditions: HEPES pH 7.4, 22° C., 18 hours
Procedure: Individual GLP-1 compounds were prepared as described in Examples 1 or 2. 3 mg of an individual lyophilized GLP molecule was dissolved in 3 ml 0.1 M HEPES buffer pH 10.5. The pH of the resulting solution was then adjusted to between 10.0 and 10.5 with 0.2 N NaOH. The solution was stirred at ambient temperature for 30 minutes and the solution was then adjusted to a pH of 7.4 with 0.2 N HCl. The solution was filtered through an appropriate syringe filter, for example a Millex GV syringe filter (Millipore Corporation, Bedford, Mass.), and the concentration of the GLP-1 compound was estimated by measuring the absorption at 280 nm in a spectrophotometer, for example a Beckman DU640. The protein concentration was then adjusted to 200 μM in HEPES pH 7.4.
The filtered GLP-1 solutions (100 μl) were diluted with 100 μl of 0.1 M HEPES pH 7.4 containing various levels of zinc chloride in an ELISA plate, (e.g. Falcon Microtest™ 96) resulting in 200 μl of solution containing various levels of zinc chloride and 100 μM GLP-1 compounds. These solutions were incubated at ambient temperature (22° C.) for 18 hours and then centrifuged, for example, in a Jouan CR412 centrifuge with microplate adapters. 150 μl of the supernatants after centrifugation were then transferred to a UV-readable ELISA microtiter plate (e.g. Costar UV plate) and the OD at 280 was determined in a microplate reader (e.g. Molecular Devices SPECTRAmax PLUS, SOFTmax PRO). A280 values are the result of two independent determinations.

GLP-1 receptor = GLP-1 receptor activation, in vitro assays; format: cell-based; conditions: activity relative to the activity of GLP-1(7-37)OH
Description: “Insulinotropic activity” refers to stimulating insulin secretion in response to elevated glucose levels, thereby causing glucose uptake by cells and decreased serum glucose levels. Insulinotropic activity can be assessed by methods known in the art, including using in vivo experiments and in vitro assays that measure GLP-1 receptor binding activity or receptor activation, e.g., assays employing pancreatic islet cells or insulinoma cells, as described in EP 619,322 to Gelfand, et al., and U.S. Pat. No. 5,120,712, respectively. The entire teachings of these references are incorporated herein by reference.
The ability of the GLP-1 compounds of the present invention to activate the GLP-1 receptor was assessed using in vitro assays such as those described in EP 619,322 to Gelfand, et al., and U.S. Pat. No. 5,120,712, respectively. The entire teachings of these references are incorporated herein by reference.

[3] = Zn/GLP-1 molar ratio 0, 100 μM GLP-1 compound
[4] = Zn/GLP-1 molar ratio 0.3, 100 μM GLP-1 compound
[5] = Zn/GLP-1 molar ratio 0.5, 100 μM GLP-1 compound
[6] = Zn/GLP-1 molar ratio 0.7, 100 μM GLP-1 compound
[7] = Zn/GLP-1 molar ratio 1, 100 μM GLP-1 compound
[8] = Zn/GLP-1 molar ratio 2, 100 μM GLP-1 compound
[9] = Zn/GLP-1 molar ratio 3, 100 μM GLP-1 compound
[10] = Zn/GLP-1 molar ratio 5, 100 μM GLP-1 compound

Substance	Aggregation Time [1]	GLP-1 Receptor Activation (GLP-1 receptor)	further results
Gln^22-GLP-1(7-37)OH (HAEGTFTSDVSSYLEQQAAKEFIAWLVKGRG)	7 h	0.42	A280 [2, 3]: 0.290; A280 [2, 4]: 0.390; A280 [2, 5]: 0.123; A280 [2, 6]: 0.076; A280 [2, 7]: 0.074; A280 [2, 8]: 0.095; A280 [2, 9]: 0.095; A280 [2, 10]: 0.097
Val^8-Lys^22-GLP-1(7-37)OH (HVEGTFTSDVSSYLEKQAAKEFIAWLVKGRG)	100 h and 54 h	0.58	A280 [2, 3]: 0.299; A280 [2, 4]: 0.0825; A280 [2, 5]: 0.0905; A280 [2, 6]: 0.1195; A280 [2, 7]: 0.1225; A280 [2, 8]: 0.1675; A280 [2, 9]: 0.1475; A280 [2, 10]: 0.142
Val^8-Asp^22-GLP-1(7-37)OH (HVEGTFTSDVSSYLEDQAAKEFIAWLVKGRG)	>90 h	0.40	A280 [2, 3]: 0.288; A280 [2, 4]: 0.2785; A280 [2, 5]: 0.2845; A280 [2, 6]: 0.287; A280 [2, 7]: 0.291; A280 [2, 8]: 0.184; A280 [2, 9]: 0.1485; A280 [2, 10]: 0.1675
Val^8-Ser^30-GLP-1(7-37)OH (HVEGTFTSDVSSYLEGQAAKEFISWLVKGRG)	8 h	0.19	
Val^8-Glu^30-GLP-1(7-37)OH (HVEGTFTSDVSSYLEGQAAKEFIEWLVKGRG)	30 h	0.29	
Val^8-Tyr^16-GLP-1(7-37)OH (HVEGTFTSDYSSYLEGQAAKEFIAWLVKGRG)	5 h	1.175	
Val^8-Lys^33-Val^34-GLP-1(7-37)OH (HVEGTFTSDVSSYLEGQAAKEFIAWLKVGRG)	22 h	0.08	
Val^8-Glu^22-GLP-1(7-36)NH2 (HVEGTFTSDVSSYLEEQAAKEFIAWLVKGR-NH2)	>65 h	1.0	
Val^8-Glu^33-GLP-1(7-37)OH (HVEGTFTSDVSSYLEGQAAKEFIAWLEKGRG)	>70 h	0.039	
Val^8-Lys^24-GLP-1(7-37)OH (HVEGTFTSDVSSYLEGQKAKEFIAWLVKGRG)	22 h	0.02	
Val^8-Lys^22-GLP-1(7-36)NH2 (HVEGTFTSDVSSYLEKQAAKEFIAWLVKGR-NH2)	24 h	0.53	
Val^8-Glu^36-GLP-1(7-37)OH (HVEGTFTSDVSSYLEGQAAKEFIAWLVKGEG)	>45 h	0.11	
Val^8-Ala^33-GLP-1(7-37)OH (HVEGTFTSDVSSYLEGQAAKEFIAWLAKGRG)	20 h	0.1	
Val^8-Leu^16-Glu^26-GLP-1(7-37)OH (HVEGTFTSDLSSYLEGQAAEEFIAWLVKGRG)	>20 h	0.23	
Val^8-Lys^23-GLP-1(7-37)OH (HVEGTFTSDVSSYLEGKAAKEFIAWLVKGRG)	>45 h	0.18	
Val^8-Pro^22-GLP-1(7-37)OH (HVEGTFTSDVSSYLEPQAAKEFIAWLVKGRG)	>75 h	0.01	A280 [2, 3]: 0.2595; A280 [2, 4]: 0.2455; A280 [2, 5]: 0.2325; A280 [2, 6]: 0.219; A280 [2, 7]: 0.1905; A280 [2, 8]: 0.1695; A280 [2, 9]: 0.1615; A280 [2, 10]: 0.171
Val^8-Ala^11-GLP-1(7-37)OH (HVEGAFTSDVSSYLEGQAAKEFIAWLVKGRG)	10 h	0.021	
Val^8-His^24-GLP-1(7-37)OH (HVEGTFTSDVSSYLEGQHAKEFIAWLVKGRG)	3 h	0.007	
Val^8-Pro^35-GLP-1(7-37)OH (HVEGTFTSDVSSYLEGQAAKEFIAWLVKPRG)	14 h	0.094	
Val^8-Gly^33-GLP-1(7-37)OH (HVEGTFTSDVSSYLEGQAAKEFIAWLGKGRG)	9 h	0.01	
Val^8-Lys^20-GLP-1(7-37)OH (HVEGTFTSDVSSYKEGQAAKEFIAWLVKGRG)	5 h	0.33	
Val^8-Glu^22-Gln^23-GLP-1(7-37)OH (HVEGTFTSDVSSYLEEQAAKEFIAWLVKGRG)	>20 h	0.47	
Val^8-Ala^16-GLP-1(7-37)OH (HVEGTFTSDASSYLEGQAAKEFIAWLVKGRG)	16 h	0.112	
Val^8-Gly^34-Lys^35-GLP-1(7-37)OH (HVEGTFTSDVSSYLEGQAAKEFIAWLVGKRG)	27 h	0.34	
